One may read the EC50 as the concentration at which the effect is half-maximal. A high value points to a need for much substance. The term Kd denotes the constant that tells how readily two partners part at equilibrium. A higher Kd goes with a looser complex.

[ ]: non-standard residue; d: D form. pY = N[C@@H](Cc1ccc(OP(=O)(O)O)cc1)C(=O)O

In assay [1] the target is T1, N-SH2 domain of SHP2 (residues 2–111) (human, UniProt Q06124 2-111).
T1 chain: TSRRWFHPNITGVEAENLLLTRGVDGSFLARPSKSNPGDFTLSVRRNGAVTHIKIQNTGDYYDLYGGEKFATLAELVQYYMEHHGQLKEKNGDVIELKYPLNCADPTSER
Nature of the assay: FP; displacement of CF-P9W5.

Assay [2] has as its target T1, N-SH2 domain of SHP2 (residues 2–111). Description: FP; displacement of CF-P9W5.
Assay [3] has the same target. Nature of the assay: FP.
Assay [4] has the same target. Nature of the assay: FP.

B1: P8, unlabeled IRS-1 pY1172 peptide, residues −2 to +5 (peptide)
peptide: Ac-LN[pY]IDLDL-NH2
SMILES: CC[C@H](C)[C@H](NC(=O)[C@H](Cc1ccc(OP(=O)(O)O)cc1)NC(=O)[C@H](CC(N)=O)NC(=O)[C@H](CC(C)C)NC(C)=O)C(=O)N[C@@H](CC(=O)O)C(=O)N[C@@H](CC(C)C)C(=O)N[C@@H](CC(=O)O)C(=O)N[C@@H](CC(C)C)C(N)=O
B1: a half-maximal response in assay [1] (EC50) required 47 nM. This molecule also returned a Kd in assay [2] of 22 nM.

B2: P8F5, P8 analogue with F at position +5 (peptide)
chain: Ac-LN[pY]IDLDF-NH2
SMILES: CC[C@H](C)[C@H](NC(=O)[C@H](Cc1ccc(OP(=O)(O)O)cc1)NC(=O)[C@H](CC(N)=O)NC(=O)[C@H](CC(C)C)NC(C)=O)C(=O)N[C@@H](CC(=O)O)C(=O)N[C@@H](CC(C)C)C(=O)N[C@@H](CC(=O)O)C(=O)N[C@@H](Cc1ccccc1)C(N)=O
B2 returned an EC50 in assay [3] of 16 nM. The molecule further had a Kd in assay [4] of 7 nM.

B3: P8E4W5, P8 analogue with E at position +4 and W at position +5 (peptide)
chain: Ac-LN[pY]IDLEW-NH2
SMILES: CC[C@H](C)[C@H](NC(=O)[C@H](Cc1ccc(OP(=O)(O)O)cc1)NC(=O)[C@H](CC(N)=O)NC(=O)[C@H](CC(C)C)NC(C)=O)C(=O)N[C@@H](CC(=O)O)C(=O)N[C@@H](CC(C)C)C(=O)N[C@@H](CCC(=O)O)C(=O)N[C@@H](Cc1c[nH]c2ccccc12)C(N)=O
In assay [3], B3 came in with an EC50 of 11 nM. This molecule had a Kd in assay [4] of 4 nM.

B4: P8W5, P8 analogue with W at position +5 (peptide)
chain: Ac-LN[pY]IDLDW-NH2
For B4, the EC50 in assay [3] is 5.4 nM.
